Reference: PMC7817217 (Proceedings of the National Academy of Sciences of the …, 2020)

B1: bACE2-Rm (H41-Q42) mutant, mouse Fc tagged (Fc fusion)
chain: STTEDEAKKFLDKFNSKAEDLSHQSSLASWDYNTNISDENVQKMDEAGAKWSAFYEEQSKLAKNYPLEEIQNDTVKRQLQILQQSGSPVLSEDKSKRLNSILNAMSTIYSTGKVCKPNNPQECLLLEPGLDNIMGTSKDYNERLWAWEGWRAEVGKQLRPLYEEYVVLKNEMARGYHYEDYGDYWRRDYETEESSGPGYSRDQLMKDVDRIFTEIKPLYEHLHAYVRAKLMDTYPLHISPTGCLPAHLLGDMWGRFWTNLYPLTVPFGQKPNIDVTDAMLNQGWDANRIFKEAEKFFVSVSLPKMTEGFWNKSMLTEPGDGRKVVCHPTAWDLGKGDFRIKMCTKVTMEDFLTAHHEMGHIQYDMAYASQPYLLRNGANEGFHEAVGEVMSLSVATPKHLKTMGLLSPDFREDDETEINFLLKQALNIVGTLPFTYMLEKWRWMVFKGEIPKEEWMKKWWEMKREIVGVVEPVPHDETYCDPASLFHVANDYSFIRYYTRTIFEFQFHEALCRIAQHNGPLHKCDISNSTDAGKKLHQMLSVGKSQAWTKTLEDIVDSRNMDVGPLLRYFKPLYTWLQEQNRKSYVGWNTDWSPYAD
B2: bACE2-Rm (Y41-Q42) mutant, mouse Fc tagged (Fc fusion)
chain: STTEDEAKKFLDKFNSKAEDLSYQSSLASWDYNTNISDENVQKMDEAGAKWSAFYEEQSKLAKNYPLEEIQNDTVKRQLQILQQSGSPVLSEDKSKRLNSILNAMSTIYSTGKVCKPNNPQECLLLEPGLDNIMGTSKDYNERLWAWEGWRAEVGKQLRPLYEEYVVLKNEMARGYHYEDYGDYWRRDYETEESSGPGYSRDQLMKDVDRIFTEIKPLYEHLHAYVRAKLMDTYPLHISPTGCLPAHLLGDMWGRFWTNLYPLTVPFGQKPNIDVTDAMLNQGWDANRIFKEAEKFFVSVSLPKMTEGFWNKSMLTEPGDGRKVVCHPTAWDLGKGDFRIKMCTKVTMEDFLTAHHEMGHIQYDMAYASQPYLLRNGANEGFHEAVGEVMSLSVATPKHLKTMGLLSPDFREDDETEINFLLKQALNIVGTLPFTYMLEKWRWMVFKGEIPKEEWMKKWWEMKREIVGVVEPVPHDETYCDPASLFHVANDYSFIRYYTRTIFEFQFHEALCRIAQHNGPLHKCDISNSTDAGKKLHQMLSVGKSQAWTKTLEDIVDSRNMDVGPLLRYFKPLYTWLQEQNRKSYVGWNTDWSPYAD

Biological target: SARS-CoV-2 spike protein receptor binding domain (RBD) (SARS-CoV-2, UniProt P0DTC2 319-541)
Experiment: SPR

Row | Binder | Kd
1 | B1 | 2220 nM
2 | B2 | 250 nM
